First the molecules themselves.
B1: HDV Ribozyme (parent)
chain: GGCCGGCAUGGUCCCAGCCUCCUCGCUGGCGCCGGCUGGGCAACAUUCCGAGGGGACCGUCCCCUCGGUAAUGGCGAAUGGGACCCA

This passage reports self-cleavage results from the RNAGym collection of RNA variant scans (doi:10.7554/elife.80360).

In this data set the parent is B1. Kind of data set: self-cleavage, relative activity (ratio to wild type); higher = more cleavage; co-transcriptional.
For the variant GGCCGGCAGGGUCCCAGCCUCCUCGCUGGCGCCGGCUGGGAAACAUUCCGAGGGGACCGUCCCCUCGGUAAUGGCGAAUGGGACCCA [U9G C41A], the self-cleavage turned out to be 0.831. With GGCCGCCAUGGUCCCAGCCUCCUCGCUGGAGCCGGCUGGGCAACAUUCCGAGGGGACCGUCCCCUCGGUAAUGGCGAAUGGGACCCA [G6C C30A] the figure was 0.0415; with GGCCGGCAUGGUCCCAGCCUCCUCGCUGGCGCCGGCUGGGCAACAUUCCGAGGCGACCGUCCACUCGGUAAUGGCGAAUGGGACCCA [G54C C63A], 1.02; with GGCCGGCAUGGUCCCAGCCUCCUCGCUGCCGCCGGCUCGGCAACAUUCCGAGGGGACCGUCCCCUCGGUAAUGGCGAAUGGGACCCA [G29C G38C], 0.0489. The value for GGCCGGCAUGGUCCCAGCCUCCUCGCUGGCGCCGGCUGGGCAACAUUCCGAGGGGGCCGUCCCCUCGGUCAUGGCGAAUGGGACCCA [A56G A70C] was 0.935; that for GGCCGGCAUGGGCCCAGCCUCCUCGCUGGCGCCGGCUGGGCAACAUUCCGACGGGACCGUCCCCUCGGUAAUGGCGAAUGGGACCCA [U12G G52C] was 0.937; that for GGUCGGCAUGGUCCCAGCCUCCUCGCUGGCGCCGGCUGGGCAACAUUCCGAGGGGACCGUCCCCUCGGUGAUGGCGAAUGGGACCCA [C3U A70G] was 0.973. The value for GGCCGGCAUGGUCCCAGCCUCCUCGCUGGCGACGGCUGGGCAAUAUUCCGAGGGGACCGUCCCCUCGGUAAUGGCGAAUGGGACCCA [C32A C44U] was 0.0875; that for GGCCGGCAUGGUCCCAGCCUCCUCUCUGGCGCCGGCUGGGCAACAUUCCGAGGGGACCGUCCCCUCGGUAAGGGCGAAUGGGACCCA [G25U U72G] was 0.181; that for GGCCGGCAUGGUCCCAGCCUCCUCGCUGGCGCCGUCUGAGCAACAUUCCGAGGGGACCGUCCCCUCGGUAAUGGCGAAUGGGACCCA [G35U G39A] was 0.0906. Consider GGCCGGCCUGGUCCCAGCCUUCUCGCUGGCGCCGGCUGGGCAACAUUCCGAGGGGACCGUCCCCUCGGUAAUGGCGAAUGGGACCCA [A8C C21U], for which the self-cleavage was determined as 0.0594.

For the variant GGCCGGCAUGGUCCCAGCCUCCUCGCUGGUGCGGGCUGGGCAACAUUCCGAGGGGACCGUCCCCUCGGUAAUGGCGAAUGGGACCCA [C30U C33G], the self-cleavage was determined as 0.266. With GGCCGGCAUGGUCCCGGCCUCCUCGCUGGCGCCGGCUGGGCAACAUACCGAGGGGACCGUCCCCUCGGUAAUGGCGAAUGGGACCCA [A16G U47A], the self-cleavage is 1.16. With GGCCGGAAUGGUCCCAGCCUCCUCGCUGGCGCCGGCUGGGCAACAUUCCGAGGGGACCGUCCCCUCGGUAAUUGCGAAUGGGACCCA [C7A G73U] the figure was 0.128; with GGCCGAAAUGGUCCCAGCCUCCUCGCUGGCGCCGGCUGGGCAACAUUCCGAGGGGACCGUCCCCUCGGUAAUGGCGAAUGGGACCCA [G6A C7A], 0.185; with GGCCGGCAUGGUCCCAGCCUCCUCGCUGGCGCAGGCUGGGGAACAUUCCGAGGGGACCGUCCCCUCGGUAAUGGCGAAUGGGACCCA [C33A C41G], 0.104. With GGCCGGCAUGGUCCCAGCCUCCUCGCUGGCGCCGGCUGGGCACCAUUCCGAGGGGACCAUCCCCUCGGUAAUGGCGAAUGGGACCCA [A43C G59A] the figure was 0.441; with GGCCGGCAUGGUCCCAGCCUCCUCGCUGGCGCCGGCUGGGCAACAUUCCGAGCGGACCGUCCCAUCGGUAAUGGCGAAUGGGACCCA [G53C C64A], 0.724; with GGGCGGCAUGGUCCCAGCCUCCUCGCUGGCGCCGGCUGGGCCACAUUCCGAGGGGACCGUCCCCUCGGUAAUGGCGAAUGGGACCCA [C3G A42C], 0.128. With GGCCGGCAUGGUCCCAGCCUCCUCGCUGGCGCCGGCUGGGCACCAUUCCGAGGGGACCGUCCCCUCGGUAUUGGCGAAUGGGACCCA [A43C A71U] the figure was 0.322; with GGCCGGCAUGGUCCCAGCCUCCUCGGUGGCUCCGGCUGGGCAACAUUCCGAGGGGACCGUCCCCUCGGUAAUGGCGAAUGGGACCCA [C26G G31U], 0.48; with GGCCGGCAUGGGCCCAGCCUCCUGGCUGGCGCCGGCUGGGCAACAUUCCGAGGGGACCGUCCCCUCGGUAAUGGCGAAUGGGACCCA [U12G C24G], 0.136. As to GGCCGGCAUGGUCCCAGCCUCCUCGCUGGCGCCGGCUGAGCAACAUUCCGAGGGGACCGUCCCCUCGGUGAUGGCGAAUGGGACCCA [G39A A70G], the self-cleavage was 0.483. With GGCCGGCAUGGUCCCAGCCUCCUCGCUGGAGCCGGCUGGGCAACAUUCCGAGGGGACCGUCCCCUCGGUAAUGGCGAAUGGGUCCCA [C30A A83U], the self-cleavage was found to be 0.0923. With GGCCGGCAUGGUCCCAGCCUCCUCGCUGGCGCCGGCCGGGCAACAUUCCGAGGGGACCGUCCCCUCGGUAAUGGCGAAUGGUACCCA [U37C G82U] the figure was 0.399; with GGCCGGCAUGGUCCCAGCCUCGUCGCUGGCGCCGGCUGGGCAACAUUCCGAGGGGACCGUCCCCUCGGUAAUGGCGAACGGGACCCA [C22G U79C], 0.105; with GGCCGGCAUGGUCCCAGCCUCCUCGCUGGCGCCGGCUGGGCAACAUUCCGAGGGGACCGUCCCCUCGCUAAUGGCGAAUGGGACCCA [G68C], 0.911. With GGCCGGCAUGGUCCCAGCGUCCUCGCUGGCGCCGGCUUGGCAACAUUCCGAGGGGACCGUCCCCUCGGUAAUGGCGAAUGGGACCCA [C19G G38U] the figure was 0.0852; with GCCCGGCAUGGUCCCAGCCUCCUCGCUGGCGCCGGCUGGGCAACAUUCUGAGGGGACCGUCCCCUCGGUAAUGGCGAAUGGGACCCA [G2C C49U], 0.132.

Consider GGCCGGCAUGGUCCCAGCCUCCUCGCUGGCGCCGGCUGGGCAACAUUCCGAGGGGACCAUCCCCUCGGUAAUCGCGAAUGGGACCCA [G59A G73C], for which the self-cleavage amounted to 0.394.

Consider GGCCGGCAUGGUCCCAACCUCCUCGCUGGCGCCGGCUGGGCAACAUUCCGAGGGGACCGUCCCCUCGGUAAUGGCGGAUGGGACCCA [G17A A77G], for which the self-cleavage was 0.295. With GGCCGGCAUGGUCCCAGCCUCCUCGCUGGCGCCGGCUGGGCAACAUUCCGCGGGGACCGUCCCCUCGGUAAUGGCGAAUGAGACCCA [A51C G81A] the figure was 0.323.
